Experimental data from publication PMC10916398.

Tests used:
HUα = target: T1, HUα (UniProt P0ACF0); test: EMSA
T1 sequence: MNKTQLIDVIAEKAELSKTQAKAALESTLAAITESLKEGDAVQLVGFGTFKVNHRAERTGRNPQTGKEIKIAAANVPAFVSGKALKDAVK

HUβ = target: T2, HUβ (UniProt P0ACF4); test: EMSA
T2 sequence: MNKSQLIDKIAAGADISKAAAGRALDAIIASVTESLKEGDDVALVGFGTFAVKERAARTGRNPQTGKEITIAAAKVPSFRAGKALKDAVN

Sequence | binding signal (HUα) | binding signal (HUβ) | binding (HUα) | binding (HUβ)
AAACTGAATTTACGACCACGTAAATGTTTAGGTTGGAAAACACCTTATGAAGTTTACTTCAAAAAA (double strand) [IRR-FAM-NO-IRR] | binds more weakly | binds more weakly |  | 
CCCATACTGAATATACACTTGAGAGTATTTATAATTTGTATCTTGAATTGTCAAACCAAGTGCAACGATTTTTTGAAGTAAACTTCATAAGGTGTTTTCCAACCTAAACATTTACGTGGTCGTAAATTCAGTTT (double strand) [IRR-FAM-Long] |  |  | binds | binds
CTTGAATTGTCAAACCAAGTGCAACGATTTTTTGAAGTAAACTTCATAAGGTGTTTTCCAACCTAAACATTTACGTGGTCGTAAATTCAGTTT (double strand) [IRR-FAM-WT] |  |  | binds | binds
GGCAGTCGTTGATAGTGGATGGCGGCTTTATGTTGGCGAATCCACAGTTCAACCCAGAATAGCGCAGTGAGGTGCGTGGATATTTCATTGGGGCTGAATTTACAATCCAAGTGCAACAAAAAAAGAAGTACTCATCAACTAGAATATAATTTTGTTTCCACACAAAAACCATTTCCAAATGATGAGTACTTCCTACCGACATCTTACAATAAACGAGCGAGAAAAGATAATGATTTTACTCGCACAGGGC (double strand) [IRL-FAM-Long (ISApl1 promoter)] |  |  | binds | binds
